Laboratory results published in patent US10287317B2, “Proprotein convertase subtilisin kexin type 9 (PCSK9) allosteric binding ligands to modulate serum low density lipoprotein (LDL) levels” (SRX Cardio, LLC, priority 2013, dated 2019).
*1 amine or outer side, *2 acyl side, *3 side chain or, on linkers, in order; H or OH if unused. Where no end group is shown, it is not given here. [ ]: non-standard residue; d: D form. Cys(CH2-Ph) = S-benzyl-Cys, O=C([C@H](CSCc1ccccc1)N[*:1])[*:2]; Phe(3-CH2NH2) = O=C([C@H](Cc1cccc(CN[*:3])c1)N[*:1])[*:2]; d(pS) = N[C@H](COP(=O)(O)O)C(=O)O; pS = N[C@@H](COP(=O)(O)O)C(=O)O; Trp(3-Me) = 3-methyltryptophan; βAla = NCCC(=O)O

Assays:
Assay type in all cases: cell-based
PCSK9-WT protein [1] = molecular target: T1, PCSK9-WT protein (Homo sapiens, UniProt Q8NBP7); test: Cellular diI-LDL uptake in HuH7 cells with PCSK9-WT; conditions: HuH7, 1.0 μg/ml PCSK9-WT, 100 uM peptide (FIG. 2)
T1 construct: V5
T1 sequence (Q8NBP7 153-692): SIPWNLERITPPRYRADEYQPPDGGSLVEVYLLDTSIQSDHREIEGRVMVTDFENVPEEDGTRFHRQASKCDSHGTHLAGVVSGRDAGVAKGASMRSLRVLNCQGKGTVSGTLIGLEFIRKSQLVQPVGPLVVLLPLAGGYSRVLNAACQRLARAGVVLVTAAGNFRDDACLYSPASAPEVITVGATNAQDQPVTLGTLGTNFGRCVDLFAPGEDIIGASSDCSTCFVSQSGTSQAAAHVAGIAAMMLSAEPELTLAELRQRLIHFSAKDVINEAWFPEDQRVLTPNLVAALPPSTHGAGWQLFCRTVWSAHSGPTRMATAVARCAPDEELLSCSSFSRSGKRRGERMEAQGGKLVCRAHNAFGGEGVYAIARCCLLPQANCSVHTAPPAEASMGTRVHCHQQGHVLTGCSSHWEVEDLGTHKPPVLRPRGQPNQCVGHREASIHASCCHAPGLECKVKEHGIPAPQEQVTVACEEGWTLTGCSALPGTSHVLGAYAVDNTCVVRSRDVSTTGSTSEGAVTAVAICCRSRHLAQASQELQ
Protocol: (§1) HuH7 cells were incubated in a 96-well plate for a total of 20 h in the absence (Cnt) or presence of 1.0 μg/ml PCSK9-WT protein alone (WT) or mixed with 100 uM of various SRX peptides. After 16 h, dil-LDL (5 ug/ml) was added to the incubation mixtures. After 4 h, fluorescence was measured (Ex: 520 nm/Em: 575 nm; cutoff: 550 nm). Dil-LDL uptake is calculated as RFU corrected for the number of cells.
(§2) LDL internalization was measured by uptake of a fluorescently tagged LDL molecule (diI-LDL) in the absence of exogenous PCSK9 (Cnt), in the presence of exogenous PCSK9 (normal PCSK9=WT, D374Y mutant PCSK9=DY), or in the presence of PCSK9 and a tested peptide (indicated as SRX##, or SRX if a single peptide results is shown in a graph).
(§3) Cells, such as HepG2, HuH7, FL83B or a cell line transfected with a short-hairpin PCSK9 knockdown sequence such as HepG2/shPCSK9, HuH7/shPCSK9, FL83B/shPCSK9, were seeded at 2×10^4 cells/well in a 96-well plate and cultured at 37 degC in RPMI+10% FBS. After approximately 24 hours, the cell media was aspirated off and replaced with RPMI+3-5 mg/mL LPDS (Lipoprotein Deficient Serum, Millipore) media for further experimentation. Benjannet et al., “Effects of the prosegment and pH on the activity of PCSK9: evidence for additional processing events” J Biol Chem. 285(52): 40965-40978 (2010).
(§4) Peptide activity was assessed by culturing cells with: i) no SRX peptide/PCSK9 protein complex (control, Cnt); ii) PCSK9 protein; and iii) SRX peptide/PCSK9 complex. Various permutations of these experimental conditions were also used, including: i) the addition of wild type PCSK9 (WT); ii) a mutant PCSK9 (e.g., D374Y mutant PCSK9, DY); iii) various SRX peptides and/or PCSK9 at the same concentration and/or combinations; iv) various SRX peptides and/or PCSK9 at different concentrations and/or combinations; v) the use of different cells, as mentioned above, with or without a transfected short-hairpin sequence; vi) a pre-incubation of the PCSK9 and SRX peptide (e.g., 1, hour, 2 hours, 3 hours, 4 hours etc.); vii) various temperatures including, but not limited to, body temperature (e.g., 37° C.), supraphysiologic temperature (e.g., 39° C.); and viii) with/without agitation (e.g., shaker or gentle periodic vortexing).
(§5) Cells were cultured using one of the combinations of conditions described in the preceding paragraph for 16 hours. After 16 hours, a quantity of diI-LDL (Low density lipoprotein coupled with 1,1′-dioctadecyl-3,3,3′,3′-tetramethylindocarbocyanine perchlorate) needed to bring the media concentration to 5 ug/mL of diI-LDL was added to the culture well and cells continued to be cultured under these new conditions for 4 additional hours. At the end of the 4-hour incubation period (20 total hours of cell culture), the cellular uptake was halted with the addition of 4% formaldehyde in 10 uM Hoechst 33342 in a solvent such as deionized autoclaved water or PBS, and specimens were incubated at 20° C. for 20 minutes. Cell specimens were rinsed twice with PBS and then fluorescence measured with excitation at 360 nm and emission detected at 460 nm to measure DNA content. Cell specimens were then be incubated with a 0.1% SDS in a 0.1 N NaOH solution while being shaken for 10 minutes. Fluorescence of the diI-LDL in the specimens were quantified using excitation at 530 nm and resulting emission at 580 nm.
Fluorescence measurements of diI-LDLR were normalized to estimated cell numbers, determined from the Hoechst fluorescence. Data was analyzed for the different experimental conditions and reported as percentage relative fluorescence units (RFU) of the Cnt specimen. Percent inhibition was calculated as the difference in RFU of a peptide exposed specimen to the RFU of PCSK9-no peptide, divided by the RFU difference in PCSK9-no peptide to RFU of Cnt specimen, also expressed as [(SRX:RFU)−(PCSK9-no peptide:RFU)]/[(PCSK9-no peptide:RFU)−(Cnt:RFU)]×100.

PCSK9-D374Y protein = PCSK9-D374Y protein (Homo sapiens, UniProt Q8NBP7, D374Y); test: Cellular diI-LDL uptake in HuH7 cells with PCSK9-D374Y
Sequence of PCSK9-D374Y protein (Q8NBP7 153-692 D374Y): as the sequence (Q8NBP7 153-692) above, with D222Y counted along it
Protocol: as §1, with “0.5” for “1.0”, “PCSK9-D374Y” for “PCSK9-WT”, “(DY)” for “(WT)”
as §1, with “0.5” for “1.0”, “PCSK9 GOF-D374Y” for “PCSK9-WT”, “(DY)” for “(WT)”, “increasing concentrations” for “100 uM”
as §2, §3, §4, §5
Fluorescence measurements of diI-LDLR were normalized to estimated cell numbers, determined from the Hoechst fluorescence. […]

PCSK9-WT protein [2] = molecular target: T1, PCSK9-WT protein; test: FACS analysis of cell surface LDLR in HuH7 cells with PCSK9-WT; conditions: HuH7 cells, FACS, exogenous WT PCSK9 plus peptide (FIG. 1, 100 μM)
Protocol: HuH7 cells were incubated for 18 h in the absence (Cnt) or presence of 0.75 μg/ml PCSK9-WT protein alone (WT) or mixed with 100 μM of various SRX peptides. The level of LDLR at the cell surface was measured by FACS using anti human LDLR Ab and a suitable secondary Ab labeled with Alexa 647. Cell surface LDLR is reported relative to Cnt. % inhibition of activity was calculated as [SRX−WT]/[Cnt−WT]×100%.
See, FIG. 1. In that experiment, the LDLR levels of a hepatocyte culture model (HuH7 cells) were measured by fluorescence activated cell sorting (FACS) in accordance with Example III. Cell surface LDLR is reported as a percentage of Basal levels of LDLR, indicated by the Cnt_Amm.Bic, Cnt_Ac.Acid, and Cnt bars in the top graph. See, FIG. 1 (top panel). LDLR levels in the presence of exogenous PCSK9 is indicated as WT_Amm.Bic, WT-Ac.Acid, and WT, and Exogenous PCSK9 in combination with a tested peptide is indicated as SRX##. The measured LDLR levels are reported as % versus basal controls (Cnt) of the respective group. […] This was further shown a percent inhibition (% inhibition was calculated as [SRX−WT]/[Cnt−WT]×100%) where positive modulation (increase) of LDLR level is reported as positive % inhibition, and negative modulation (decrease) of LDLR level is reported as negative % inhibition. See, FIG. 1 (bottom panel).
Benjannet et al., “Effects of the prosegment and pH on the activity of PCSK9: evidence for additional processing events” J Biol Chem. 285(52): 40965-40978 (2010). The cells were then washed 3× with solution A (calcium/magnesium-free Dulbecco's PBS (Invitrogen) containing 0.5% bovine serum albumin (Sigma) and 1 g/liter glucose)). The cells were then incubated for 10 min at room temperature with 1× Versene solution (Invitrogen) followed by the addition of 5 ml of solution A. The cells were then incubated for 40 min in solution A containing a human LDLR mAb-C7 (1:100; Santa Cruz Biotechnology). Following washes, the cells were then incubated for 20 min in solution A containing a secondary antibody (Alexa Fluor 647 donkey anti-mouse antibody; 1:250; Molecular Probes).
Following suspension in PBS containing 0.2% of propidium iodide, the cells were analyzed by FACS for both propidium iodide (dead cells) and LDLR in live cells with Alexa Fluor 647 using the FACS BD LSR (BD Biosciences).

[3] = HuH7, 0.5 μg/ml PCSK9-D374Y, 100 uM peptide (FIG. 3)
[4] = HuH7, 0.5 μg/ml PCSK9 GOF-D374Y, increasing concentrations of peptide (FIG. 4)

Substance	LDL internalization (dil-LDL % uptake vs Cnt) (PCSK9-WT protein [1])	LDL internalization (dil-LDL % uptake vs Cnt) (PCSK9-D374Y protein; [3])	LDL internalization (dil-LDL % uptake vs Cnt) (PCSK9-D374Y protein; [4])	modulation of LDLR cell surface level (PCSK9-WT protein [2])
LDLFFS [Compound 9]	negatively modulated (decreased)	positively modulated (increased)	positively modulated (increased)	
Phe(4-Ph)-Ala-Ser(p)-morpholine [Compound 16]	negatively modulated (decreased)	negatively modulated (decreased)		negatively modulate (decrease)
Thr-Leu-Cys(CH2-Ph)-Thr-Trp(3-Me)-Ser-Ser-Ser(p) (TL[Cys(CH2-Ph)]T[Trp(3-Me)]SS[pS]) [Compound 7]	negatively modulated (decreased)	positively modulated (increased)		
Thr-Leu-Cys(CH2-Ph)-Thr-Trp-Ser-Ser-Ser(p) [Compound 3]	positively modulated (increased)	positively modulated (increased)	positively modulated (increased)	positively modulate (increase)
Thr-Leu-Thr-Trp-Ser-Ser-Ser(p) (TLTWSS[pS]) [Compound 15]	negatively modulated (decreased)	negatively modulated (decreased)		
VLELYW [Compound 8]	negatively modulated (decreased)			
β-Ala-Phe(3-CH2NH2)-Val-D-Ser(p)-Phe-Trp ([βAla][Phe(3-CH2NH2)]V[d(pS)]FW) [Compound 2]	positively modulated (increased)	positively modulated (increased)	positively modulated (increased)	positively modulate (increase)
